Results published in PMC3527935.

How the values were obtained:
[1] = target: soluble LDL receptor ectodomain (UniProt P01130); experiment: BLI
[2] = target: soluble LDL receptor ectodomain (UniProt P01130); experiment: ELISA

Chain of soluble LDL receptor ectodomain (P01130 22-788): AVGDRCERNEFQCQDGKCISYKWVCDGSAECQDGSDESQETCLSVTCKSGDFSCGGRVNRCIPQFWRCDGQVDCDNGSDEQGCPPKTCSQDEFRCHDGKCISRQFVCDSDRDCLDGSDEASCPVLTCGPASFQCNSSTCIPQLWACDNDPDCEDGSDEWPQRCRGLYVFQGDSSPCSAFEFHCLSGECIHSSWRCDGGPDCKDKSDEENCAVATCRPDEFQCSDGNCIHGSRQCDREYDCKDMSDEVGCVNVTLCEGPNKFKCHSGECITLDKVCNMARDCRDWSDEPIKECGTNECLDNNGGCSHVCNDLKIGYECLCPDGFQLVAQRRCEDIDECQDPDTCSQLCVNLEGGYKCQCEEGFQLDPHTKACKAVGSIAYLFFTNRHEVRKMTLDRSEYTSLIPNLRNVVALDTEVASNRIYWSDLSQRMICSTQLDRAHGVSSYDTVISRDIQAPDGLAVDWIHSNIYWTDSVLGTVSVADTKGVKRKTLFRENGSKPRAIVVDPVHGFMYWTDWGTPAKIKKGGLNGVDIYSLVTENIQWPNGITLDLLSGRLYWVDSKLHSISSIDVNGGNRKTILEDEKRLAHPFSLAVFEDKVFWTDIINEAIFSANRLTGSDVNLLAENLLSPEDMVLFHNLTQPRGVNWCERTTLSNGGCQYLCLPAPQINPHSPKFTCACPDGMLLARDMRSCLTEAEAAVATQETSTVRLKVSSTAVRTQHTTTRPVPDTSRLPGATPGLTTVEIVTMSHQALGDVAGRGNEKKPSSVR

Q: Which Kd [1] does the source give for “purified hepsin-cleaved PCSK9 (from UniProt Q8NBP7) (natural protein)” here?
A: 268 nM

Q: What about the koff [1] of the same substance?
A: 0.00858 s⁻¹

Q: What about the kon [1] of the same substance?
A: 32000 M⁻¹ s⁻¹

Q: What about the affinity loss against intact PCSK9 (IC50 intact/IC50 cleaved), fold [2] of the same substance?
A: 1.4 fold

Q: How did the Kd [1] turn out when “purified furin-cleaved PCSK9 (from UniProt Q8NBP7) (natural protein)” was run?
A: 356 nM

Q: And the koff [1]?
A: 0.0138 s⁻¹

Q: What about the kon [1] of the same substance?
A: 39000 M⁻¹ s⁻¹

Q: And the affinity loss against intact PCSK9 (IC50 intact/IC50 cleaved), fold [2]?
A: 1.1 fold
